The test addresses CFP-SelM′ (human) (UniProt Q8WWX9). The test is described as follows: FRET or BRET; acceptor photobleaching FRET in living HeLa cells cotransfected with CFP (donor) and YFP (receptor) plasmids; region of interest bleached at 515 nm for 20 s; laser confocal microscope.
Sequence of UniProt Q8WWX9 (Q8WWX9 28-145): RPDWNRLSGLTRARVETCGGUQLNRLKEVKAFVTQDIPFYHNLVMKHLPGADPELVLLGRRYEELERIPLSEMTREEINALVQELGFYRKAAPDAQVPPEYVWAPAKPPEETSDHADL

“YFP-Gal-1 (from UniProt P09382 1-135) (natural protein)” had an FRET efficiency of 27.3%; a distance between donor and receptor (FRET) of 6.35 nm.

The record behind these values is article PMC3856062.
